Assay results published in PMC7676268.

Molecular target: SARS-CoV-2 glycoprotein S (SARS-CoV-2) (UniProt P0DTC2)
Assay: cryo-EM structure; in situ cryo-electron tomography on cryo-FIB milled lamellae of chemically fixed infected cells; subtomogram average of 219 S trimers from six tomograms of intracellular virions; C3 symmetry applied after it was revealed without being imposed

“SARS-CoV-2 glycoprotein S (from UniProt P0DTC2 14-1273) (natural protein)” was tested. Which stoichiometry N did it give?
Its stoichiometry N is 3.
